Assay results from paper PMC6133441.

Molecular target: human recombinant galectin-9, medium isoform (gal-9M) (human) (UniProt O00182)
Test: SPR; Biacore T200; gal-9M covalently bound to a CM5 chip (NHS/EDC, 10 μg/mL, pH 5, acetate buffer); Gal-Nab1 and Gal-Nab2 as analytes, 1.5 to 400 nM, 40 μL/min, 400 s, albumin 0.1 mg/mL and tween 0.05%; dissociation 500 s; the paper says the KD reflects avidity rather than affinity (apparent)

Sequence of human recombinant galectin-9, medium isoform (gal-9M) (human) (O00182 other isoform, or with tags, fused parts or gaps): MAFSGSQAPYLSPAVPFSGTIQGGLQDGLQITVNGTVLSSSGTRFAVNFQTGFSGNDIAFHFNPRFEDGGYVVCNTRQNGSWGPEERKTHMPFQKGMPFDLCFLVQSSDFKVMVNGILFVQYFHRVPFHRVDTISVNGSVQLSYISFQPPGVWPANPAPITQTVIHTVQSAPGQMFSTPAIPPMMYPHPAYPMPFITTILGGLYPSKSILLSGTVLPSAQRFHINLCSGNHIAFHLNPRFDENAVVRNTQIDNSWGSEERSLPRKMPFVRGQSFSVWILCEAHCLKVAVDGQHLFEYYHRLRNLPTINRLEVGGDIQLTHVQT

B1: Gal-Nab1 (antibody, V domains shown)
VH: KVQLQQSGAELVKPGASVKLSCKASGYTFTDYTIHWVKQRSGQGLEWIGWFYPGSHSIKYNEQFKDRATLTADKSSSTVYMELSRLTSEDSAVYFCTRHGGYDGFDYWGQGTTLTVSS
VL: DIVMSQSPSSLAVSVGEKITMSCKSSQSLFYSTNQKNYLAWYQQKPGQSPKLLIYWASTRESGVPDRFTGSGSGTDFTLTISSVKAEDLAVYYCQQYYYFPYTFGGGTKLEIK
**Q.** Which results are given for B1?
**A.** Kd: 4.34 nM; koff: 0.000115 s⁻¹; kon: 26500 M⁻¹ s⁻¹; t1/2: 2.07 h
